Assay results as given in article PMC4784741.
Each block holds one substance with its values, some of them ahead of it.

What was measured:
[1] = target: recombinant human cathepsin L (human)
[2] = target: recombinant p41 Ii without cytoplasmic and transmembrane domain (with inhibitory p41 fragment included) (human); assay: SDS-PAGE with Western blot; recombinant Ii isoforms separated by SDS-PAGE, blotted and labelled with anti-Ii (LN2) mAb; minor bands above the monomers
[3] = target: recombinant p31 Ii without cytoplasmic and transmembrane domain (and no inhibitory fragment) (human); assay: as above

recombinant p41 Ii without cytoplasmic and transmembrane domain (with inhibitory p41 fragment included) (domain or fragment), sequence (P04233 73-296): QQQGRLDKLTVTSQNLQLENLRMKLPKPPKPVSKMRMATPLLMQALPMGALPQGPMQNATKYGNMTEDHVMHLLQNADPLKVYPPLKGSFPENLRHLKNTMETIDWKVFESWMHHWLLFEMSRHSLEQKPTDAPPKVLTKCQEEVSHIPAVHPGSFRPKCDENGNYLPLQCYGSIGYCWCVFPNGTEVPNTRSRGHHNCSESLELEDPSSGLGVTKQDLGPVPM

active site titration: degradation of Z-Phe-Arg-AMC by cathepsin L (2.5 nM) with p41 fragment 0.5 nM to 3 nM; molar ratio at which the activity is abolished (molar ratio p41 fragment/cathepsin L) [1]: 1
Substance: p41 fragment of invariant chain p41 Ii (domain or fragment)

stoichiometry N [2]: 2
Substance: recombinant p41 Ii without cytoplasmic and transmembrane domain (with inhibitory p41 fragment included) (domain or fragment)

stoichiometry N [3]: 2
Substance: recombinant p31 Ii without cytoplasmic and transmembrane domain (and no inhibitory fragment) (domain or fragment)
